Experimental data published in patent publication US20180100008A1 (VHSQUARED, published 2018).

Tests used:
[1] = target: T1, TcdB from C. difficile ribotype 027 (Clostridium difficile ribotype 027 …, UniProt P18177 2-2366); assay: sandwich ELISA: TcdB coated, quadrahead, then TcdA, rabbit anti-TcdA pAb
T1 construct: also called 027 TcdB; R20291 (027)

[2] = target: T2, TcdB from C. difficile ribotype 087 (Clostridium difficile ribotype 087 …, UniProt P18177 2-2366); assay: as above
T2 construct: also called 087 TcdB; 10463 (087)

[3] = target: T2, TcdB from C. difficile ribotype 087; assay: sandwich ELISA (figure legend)
[4] = target: T1, TcdB from C. difficile ribotype 027; assay: ELISA, TcdB coated, quadrahead detected with rabbit polyclonal anti-ICVD

Binder | binding result [1] | binding result [2] | binding result [3] | binding result [4]
ID3C (bispecific antibody) DVQLQESGGGLVQAGDSLRLSCAASGATLSSYTIGWFRQAPEKEREFVAGSSRDGRTNYYANSVKGRFTISRDNAKNTVYLQMNSLKPEDTAVYYCAAHTTSGVPVRERSYAYWGQGTQVTVSSGGGGSGGGGSGGGGSGGGGSDVQLQESGGGLVQAGGSLRLSCAASGATSDVYAIGWFRQVPGKEREFVATINRSGSDSYYADSVKGRFTISRDNAKNTVYLQMNSLKPEETAVYYCAASRSDCIGYGCRRVSQDYWGQGTQVTVSSGGGGSGGGGSGGGGSGGGGSDVQLQESGGGLVQAGGSLRLSCVISGMDFSHKPAGWFRQAPGKEREFVASITTRASTHYADSVKGRFTISRDNAKNTVYLEMNSLKPEDTAVYYCNSEYYWGQGTQVTVSSGGGGSGGGGSGGGGSGGGGSDVQLQESGGGLVQAGGSLRLSCAASGATFSSYYIGWFRQAPGKEREFVAAINGSGGNRISADSVKGRFTISRDNAKNTVYLQLNSLKPEDTAVYYCAASLTYYGRSARYDYWGQGTQVTVSS | binds | binds | – | –
ID1C (bispecific antibody) DVQLQESGGGLVQAGGSLRLSCAASGATSDVYAIGWFRQVPGKEREFVATINRSGSDSYYADSVKGRFTISRDNAKNTVYLQMNSLKPEETAVYYCAASRSDCIGYGCRRVSQDYWGQGTQVTVSSGGGGSGGGGSGGGGSGGGGSDVQLQESGGGLVQAGGSLRLSCVISGMDFSHKPAGWFRQAPGKEREFVASITTRASTHYADSVKGRFTISRDNAKNTVYLEMNSLKPEDTAVYYCNSEYYWGQGTQVTVSSGGGGSGGGGSGGGGSGGGGSDVQLQESGGGLVQAGDSLRLSCAASGATLSSYTIGWFRQAPEKEREFVAGSSRDGRTNYYANSVKGRFTISRDNAKNTVYLQMNSLKPEDTAVYYCAAHTTSGVPVRERSYAYWGQGTQVTVSSGGGGSGGGGSGGGGSGGGGSDVQLQESGGGLVQAGGSLRLSCAASGATFSSYYIGWFRQAPGKEREFVAAINGSGGNRISADSVKGRFTISRDNAKNTVYLQLNSLKPEDTAVYYCAASLTYYGRSARYDYWGQGTQVTVSS | – | – | binds | binds
